The target in assay [1] is T1, recombinant human CD70 (Flag-TNC-CD70) (human, UniProt P32970 39-193).
T1 construct: extracellular domain; Captured by anti-Flag mAb in ELISA; as 'recombinant human CD70' immobilised on Biacore CM5 chips; TNC is for trimerisation; also called recombinant CD70; human recombinant CD70; not shown: Flag tag and TNC trimerisation domain
T1 sequence (looked up): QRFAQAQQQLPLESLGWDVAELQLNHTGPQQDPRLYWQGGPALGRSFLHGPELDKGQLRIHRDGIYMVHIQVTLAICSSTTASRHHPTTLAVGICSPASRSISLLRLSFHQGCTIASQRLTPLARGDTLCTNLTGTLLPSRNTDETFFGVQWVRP
In words: Biacore; recombinant human CD70 on CM5 chip; Fab from papain digestion. As for the experimental part: Recombinant human CD70 was immobilized on a CM5 Biacore chip. The immobilization was performed in accordance with a method provided by Biacore and by using the NHS/EDC kit (Biacore AB): after activation of the chip, a solution of 50 μg/ml of recombinant CD70 in 10 mM acetate buffer with pH of 5 was prepared and 1 μl of this solution (50ng) was injected resulting in a surface density of approximately 1000 RU.
Fabs were prepared for the CD70 mAbs ARGX-110, MDX1411 and SGN70 by papain digestion. These Fabs, at a concentration of approximately 100-400 μg/ml, were diluted 6-fold in HEPES-buffered saline (0.1M HEPES, 1.5M NaCl, 30 mM EDTA, 0.5% v/v surfactant P20). They were injected (30 μl) and passed through the flow cells at a flow rate of 30 μl/min. After binding of the Fab to CD70, the off-rate was monitored for a period of 10 minutes. After dissociation, the flow cell surfaces were regenerated by injecting 5 μl of 10 mM NaOH. Sometimes multiple injections of NaOH were needed to regenerate the surfaces depending on the affinity of the Fabs. Off-rate analysis was done by applying the BIAevaluation software. First, the sensogram of the blank runs were subtracted from those obtained with the coated flow cell.

Assay [2] concerns the target T2, human CD70 expressed on the surface of cells (human, UniProt P32970 1-193).
T2 sequence (looked up): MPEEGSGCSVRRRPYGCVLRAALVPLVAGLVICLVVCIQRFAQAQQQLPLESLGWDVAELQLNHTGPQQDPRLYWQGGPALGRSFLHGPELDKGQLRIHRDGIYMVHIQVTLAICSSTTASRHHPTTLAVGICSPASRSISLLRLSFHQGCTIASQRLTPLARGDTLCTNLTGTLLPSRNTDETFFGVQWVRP
In words: cell-based or functional assay.

Assay [3] addresses T2, human CD70 expressed on the surface of …. In words: flow cytometry on MHH-PREB-1 cells; anti-human IgG-FITC. As for the experimental part: In a further experiment, NHL-derived MHH-PREB-1 cells (1W cells) were incubated with a concentration gradient of chimeric llama-human CD70 inhibiting mAbs (20 μg/ml-0.25 ng/ml) and binding of the mAbs to the cells was detected using anti-human IgG-FITC antibody.

Assay [4] deals with T1, recombinant human CD70 (Flag-TNC-CD70). In words: inhibition ELISA; Flag-TNC-CD70 captured by anti-Flag mAb; competitor CD27-Fc. As to the method: From selected phage transfected into TG1, individual colonies were picked randomly for growth in 96 well plates. After IPTG induction according to standard protocols periplasmic fractions (penis) containing Fabs were prepared. […] In this assay, Flag-TNC-CD70 is captured by an anti-Flag mAb and binding of CD27-Fc is detected via a biotinylated anti-CD27 mAb and strep-HRP in the absence or presence of CD70 Fabs (FIGS. 2 and 3) or CD70 mAbs (FIG. 4). In FIG. 2B it can be seen that 27B3, which has an identical VH as 9D1, but contains a somewhat different light chain, seems to block binding of CD27 to CD70 more efficiently, which was in line with the better off rate of this Fab as measured on Biacore (data not shown). Table 3 indicates the blocking potency (expressed as IC50) for the various llama-human chimeric mAbs tested in the CD70 inhibition ELISA. […] FIG. 3 is a composite of an experiment testing llama CD70 Fabs for blocking activity (in the inhibition ELISA, see white bars) and for CD70 binding (binding ELISA, black bars). For the binding ELISA, Flag-TNC-CD70 is captured by an anti-Flag mAb and binding of the Fabs is detected using an anti-myc-HRP mAb, which recognizes the MYC tag fused to the C-terminus of the Fd fragment. For comparison purposes, known monoclonal antibodies to CD70 (SGN70 described in US 2010/0129362 A1, clone 1F6; and MDX69A7 described in WO2008/074004 FIGS. 5A and 5B) were tested in parallel. […] Of interest is clone 59D10, which as Fab has no blocking activity, but when converted into a chimeric IgG was antagonistic (see Table 3). Amino acid sequences of the VH and VL domains of binding and blocking llama-derived Fab clones are shown elsewhere herein (Tables 6-9).

Assay [5] concerns the target T3, rhesus recombinant CD70 (FLAG-TNC-rhesus CD70) (rhesus).
T3 construct: also called rhesus Flag-TNC-CD70
The assay can be described thus: inhibition ELISA; FLAG-TNC-rhesus CD70; competitor CD27-Fc. The text has this:
In this assay, Flag-TNC-CD70 is captured by an anti-Flag mAb and binding of CD27-Fc is detected via a biotinylated anti-CD27 mAb and strep-HRP in the absence or presence of CD70 Fabs (FIGS. 2 and 3) or CD70 mAbs (FIG. 4). In FIG. 2B it can be seen that 27B3, which has an identical VH as 9D1, but contains a somewhat different light chain, seems to block binding of CD27 to CD70 more efficiently, which was in line with the better off rate of this Fab as measured on Biacore (data not shown). Table 3 indicates the blocking potency (expressed as IC50) for the various llama-human chimeric mAbs tested in the CD70 inhibition ELISA. […] FIG. 3 is a composite of an experiment testing llama CD70 Fabs for blocking activity (in the inhibition ELISA, see white bars) and for CD70 binding (binding ELISA, black bars). For the binding ELISA, Flag-TNC-CD70 is captured by an anti-Flag mAb and binding of the Fabs is detected using an anti-myc-HRP mAb, which recognizes the MYC tag fused to the C-terminus of the Fd fragment. For comparison purposes, known monoclonal antibodies to CD70 (SGN70 described in US 2010/0129362 A1, clone 1F6; and MDX69A7 described in WO2008/074004 FIGS. 5A and 5B) were tested in parallel. […] Of interest is clone 59D10, which as Fab has no blocking activity, but when converted into a chimeric IgG was antagonistic (see Table 3). […]

B1: ARGX-110 Fab (Fab, V domains shown)
VH: EVQLVESGGGLVQPGGSLRLSCAASGFTFSVYYMNWVRQAPGKGLEWVSDINNEGGTTYYADSVKGRFTISRDNSKNSLYLQMNSLRAEDTAVYYCARDAGYSNHVPIFDSWGQGTLVTVSS
VL: QAVVTQEPSLTVSPGGTVTLTCGLKSGSVTSDNFPTWYQQTPGQAPRLLIYNTNTRHSGVPDRFSGSILGNKAALTITGAQADDEAEYFCALFISNPSVEFGGGTQLTVLG
For B1, the koff in assay [1] is 0.00014 s⁻¹.

B2: 59D10 chimeric llama-human mAb (antibody, human IgG1, V domains shown)
VH: EVQLVESGGGLVQPGGSLRLSCAASELSFSISEMTWVRQAPGKGLEWVSGISGVTGGSSTSYADSVKGRFTISRDNDKNTLYLQMNSLIPEDTAVYYCATTSGTYYFIPEYEYWGQGTQVTVSS
VL: QSVLTQPPSVSGSPGKTVTISCAGTSSDVGYGYYVSWYQQFPGMAPKLLIYDVNKRASGIADRFSGSKAGNTASLTISGLQSEDEADYYCASYRSSANAVFGGGTHLTVLG
In the case of B2, in assay [2], the “IC50 (ng/ml), IL-8 secretion in Raji / HT1080-CD27 co-culture assay” value turned out to be 10 ng/mL. The molecule also displayed an EC50 in assay [3] of 0.074 µg/mL. Moreover, the IC50 in assay [4] was 0.107 µg/mL.

B3: 57B6 chimeric llama-human mAb (antibody, human IgG1, V domains shown)
VH: QLQLVESGGGLVQPGGSLRLSCAASGFSFSHYAMSWVRQAPGKGLEWVSGDNTYDGGTRYQDSVKGRFTISRDNGKNTLYLQMNSLKPEDTAVYYCAKDTGRGIMGEYGMDYWGKGTLVTVSS
VL: QTVVTQEPSLSVSPGGTVTLTCGLKSGSVTSSNYPAWYQQTPGQAPRLLIYNTNSRHSGVPSRFSGSISGNKAALTITGAQPEDEADYYCALYMGSGSANAMFGGGTHLTVLG
Take B3: the “IC50 (ng/ml), IL-8 secretion in Raji / HT1080-CD27 co-culture assay” value in assay [2] stood at 5 ng/mL. Also, in assay [3], the midpoint of the response, the EC50, lay at 0.083 µg/mL. Besides, the IC50 is 0.154 µg/mL in assay [4] and 0.135 µg/mL in assay [5].
